Like-named read-outs stand apart in the source and are kept apart here.
Key:
[1] = tested on: human breast tumor, BT 474; experiment: BT 474 breast tumor growth with human T cells and DC in SCID-beige mice; format: in vivo
Text: SCID-beige mice were challenged with the human breast tumor, BT 474 (ATCC HTB-20), SC, together with human peripheral blood T cells and DC. Animals received a single dose of 21.4.1 (IP) at the time of tumor injection.

B cell lymphoma Daudi = experiment: Mortality in systemic Daudi B cell lymphoma model; format: in vivo, human tumor in SCID-beige mice; details: Daudi IV; single IP injection; monitored for 58 days
Method: The ability of an anti-CD40 antibody according to the invention (21.4.1) to delay mortality in a CD40(+) systemic tumor model using a B cell lymphoma was assessed.
SCID-beige mice were injected IV with the B cell lymphoma Daudi (ATCC CCL-213). 21.4.1 was administered as a single injection (IP) at the time of tumor injection. Mortality was monitored for 58 days.

breast tumor, BT 474 = experiment: Established BT 474 breast tumors: antibody and/or cisplatin; format: in vivo, human tumor in SCID-beige mice; details: single IP injection once tumors reached 200 mm^2; antibody 1 mg/kg, cisplatin 2.5 mg/kg; Day 84
Method: The therapeutic effects of an anti-CD40 antibody (21.4.1) in preventing the growth of human breast tumors alone and in the presence of cisplatin was examined.
SCID-beige mice were injected SC with the breast tumor, BT 474. The antibody (1 mg/kg, IP) and/or cisplatin (2.5 mg/kg, IP) were administered as a single injection once tumors reached a size of 200 mm^2. Tumor growth was measured on Day 84 after challenge.

cynomolgus B-cells = experiment: Pharmacodynamics: B-cell surface marker upregulation after IV dosing (flow cytometry); format: in vivo, cynomolgus monkeys
Method: A CD40 antibody (21.4.1) was administered intravenously at various doses (1 mg/kg n=4, 3 mg/kg n=4, 5 mg/kg n=2 and 10 mg/kg n=2) to cynomolgus monkeys. Heparinized blood was drawn from the monkeys at various time points pre- and postdose. The blood was aliquoted and stained. Data were acquired using a Becton Dickinson FACSCalibur and analyzed with CellQuest software. Results were calculated as fold increases in median fluorescence intensity as compared to pre-dose values.

[2] = tested on: lymph node cells obtained from cancer patients; experiment: Proliferation of cancer patients' lymph node cells stimulated with autologous tumor cells (3H-thymidine); format: cell-based, human; details: antibody 1 μg/mL (6.7 nM); 3H-thymidine 96 hours later
Text: (§1) Effects of a human anti-CD40 antibody (21.4.1) on lymph node cells obtained from cancer patients stimulated with autologous tumor cells was examined.
(§2) Lymph node cells and tumors were collected from patients with renal cell carcinoma, non-small cell lung cancer, transitional cell carcinoma of the bladder, colon cancer, prostate cancer, and head and neck cancer. The lymph node cells were placed into culture together with irradiated collagenase treated tumors (recovered from the same patient) in the presence or absence of 21.4.1 (1 μg/mL; 6.7 nM). Proliferation was assessed using ^3H-thymidine 96 hours later. The number of INFγ producing cells was assessed by ELISPOT, following restimulation.

[3] = tested on: lymph node cells obtained from cancer patients; experiment: IFNγ producing cells by ELISPOT in lymph node cell cultures stimulated with tumor antigen; format: cell-based, human; details: antibody 1 μg/mL (6.7 nM); ELISPOT following restimulation
Text: as §1, §2

[4] = tested on: unstimulated human whole blood; experiment: Whole-blood cytokine release assay
Method: An anti-CD40 antibody (21.4.1) was tested for its ability to induce the release of cytokines from unstimulated human whole blood using an in vitro whole blood assay which correlates with induction of antibody-mediated cytokine release in humans. 21.4.1 was tested at 1, 10 and 100 μg/mL, along with a murine anti-human CD3 IgG1 as a positive control that induces cytokine release through an Fc mediated pathway, and LPS as a second positive control that induces cytokines by stimulating macrophages. The donors used included individuals that responded to both the murine antibody and LPS (4 donors), as well as individuals who only responded to the LPS (3 donors). Heparinized whole blood was cultured with 21.4.1 for 5 hours and plasma was collected and analyzed for tumor necrosis factor alpha (TNF-α), interferon gamma (INF-γ) and interleukin-6 (IL-6) by ELISA (using commercially available kits). Cultures were also incubated for 48 hours and analyzed for interleukin-1 beta (IL-1β).

[5] = tested on: CD40 receptors on cynomolgus leukocytes; experiment: 125I-21.4.1 binding to CD40 receptors on cynomolgus leukocytes; details: 500-fold excess unlabeled 21.4.1; total % specific binding minus % binding to FcR
Method: The binding of 21.4.1 to Fc receptors (FcR) on human or cynomolgus peripheral blood leukocytes was determined by using ^125I-21.4.1 and a human IgG1 control mAb. Human leukocytes from normal donors or cynomolgus leukocytes were isolated from whole blood using plasma gel and washed thoroughly to allow dissociation of receptor-bound serum immunoglobulins. Centrifugation through a sucrose cushion was used to separate cell-bound and free antibodies. Studies were performed at 4° C. in the presence of sodium azide to prevent receptor internalization.
21.4.1 was tested for specific binding to FcR by using excess unlabeled human IgG2 isotype matched antibody as a competitor. ^125I-21.4.1 specific binding to FcR on human leukocytes (n=5 donors) was −1.0±8.5%, and specific binding to FcR on cynomolgus leukocytes (n=4) was 15±13%. […] The specific binding of the IgG1 control antibody to FcR on human and cynomolgus leukocytes accounted for 56% and 51% of the total bound radioactivity, respectively.

[6] = cynomolgus monkey, in vivo
Method: The pharmacokinetic properties of an anti-CD40 antibody (21.4.1) were examined in cynomolgus monkeys following intravenous (IV) administration of a single dose of 1, 3, 5 or 10 mg/kg.

Substance: 21.4.1: human agonist anti-CD40 antibody; amino acid sequences SEQ ID NOs:5-8; hybridoma deposit PTA-3605
- amount necessary to cause a 50% reduction in tumor growth ([1]; BT 474 with human T cells and DC, single IP dose at tumor injection, Day 53): 0.005 mg/kg
- growth of BT 474 cells ([1]; in the presence of immune cells, single injection): prevented the growth
- mortality induced by systemically administered tumor cell line (B cell lymphoma Daudi): prevented mortality
- tumor growth, single agent (breast tumor, BT 474): prevented tumor growth
- CD23 expression on B-cells, increase vs pre-dose (cynomolgus B-cells; 24 hours after dosing, 3 mg/kg and 10 mg/kg IV): ≥ 20 fold
- dose producing a saturating pharmacodynamic response in cynomolgus B-cells (cynomolgus B-cells; IV, MHC Class II and CD23 on CD20+ cells): 1 mg/kg
- CD71 (transferrin receptor) level (cynomolgus B-cells; after IV dosing): moderate upregulation
- CD80 expression (cynomolgus B-cells; after IV dosing): did not change significantly
- CD86 costimulatory molecule level (cynomolgus B-cells; after IV dosing): moderate upregulation
- upregulation of both surface markers (MHC Class II, CD23) persisted, increase (cynomolgus B-cells; while 21.4.1 levels remained above 1 μg/ml): ≥ 2 fold
- proliferation of lymph node cells in response to tumor antigen, enhancement [2]: 3-4 fold
- number of IFNγ+ positive T cells [3]: enhanced
- IL-6 in plasma ([4]; 100 μg/mL, only one donor, 5 hours): 90 pg/mL
- cytokines in plasma of human blood ([4]; 1 or 10 μg/mL 21.4.1, ELISA): not detected
- elevation of INFγ or IL-1β ([4]; any of the samples, 1, 10 and 100 μg/mL): no elevation
- induction of TNF-α or IL-6 on re-test ([4]; same donor re-tested subsequently): no detectable induction
- specific binding to CD40 receptors on cynomolgus leukocytes [5]: 67%
- duration of exposure of ≧0.1 μg/mL [6]: 4 days
- volume of distribution at steady state, mean of different doses ([6]; iv): 0.0575 L/kg
- AUC(0-∞) ([6]; iv, 1 mg/kg): 298 µg·h/mL
- CL ([6]; iv, 1 mg/kg): 3.81 mL/h/kg
- Cmax ([6]; iv, 1 mg/kg): ~20000 ng/mL
- Vdss ([6]; iv, 1 mg/kg): 0.0757 L/kg
- t1/2 ([6]; iv, 1 mg/kg): 18 h
- AUC(0-∞) ([6]; iv, 3 mg/kg): 2460 µg·h/mL
- CL ([6]; iv, 3 mg/kg): 1.28 mL/h/kg
- Vdss ([6]; iv, 3 mg/kg): 0.0459 L/kg
- t1/2 ([6]; iv, 3 mg/kg): 33.6 h
- AUC(0-∞) ([6]; iv, 5 mg/kg): 4790 µg·h/mL
- CL ([6]; iv, 5 mg/kg): 1.04 mL/h/kg
- Vdss ([6]; iv, 5 mg/kg): 0.0488 L/kg
- t1/2 ([6]; iv, 5 mg/kg): 33.6 h
- AUC(0-∞) ([6]; iv, 10 mg/kg): 12500 µg·h/mL
- CL ([6]; iv, 10 mg/kg): 0.798 mL/h/kg
- Vdss ([6]; iv, 10 mg/kg): 0.0529 L/kg
- apparent mean elimination half-life, range over doses ([6]; iv, 10 mg/kg): 18 to 48 h
- systemic clearance, range over doses ([6]; iv, 10 mg/kg): 0.798 to 3.81 mL/h/kg
- t1/2 ([6]; iv, 10 mg/kg): 48 h
- volume of distribution at steady state, range over doses ([6]; iv, 10 mg/kg): 0.0459 to 0.0757 L/kg

— patent US20120263732A1, “CD40 ANTIBODY FORMULATION AND METHODS” (PFIZER INC., priority 2003, published 2012)
